# Target: CD20 (human) (UniProt P11836)
# Assay: cell-based or functional assay
# Sequence of UniProt P11836 (P11836 whole entry): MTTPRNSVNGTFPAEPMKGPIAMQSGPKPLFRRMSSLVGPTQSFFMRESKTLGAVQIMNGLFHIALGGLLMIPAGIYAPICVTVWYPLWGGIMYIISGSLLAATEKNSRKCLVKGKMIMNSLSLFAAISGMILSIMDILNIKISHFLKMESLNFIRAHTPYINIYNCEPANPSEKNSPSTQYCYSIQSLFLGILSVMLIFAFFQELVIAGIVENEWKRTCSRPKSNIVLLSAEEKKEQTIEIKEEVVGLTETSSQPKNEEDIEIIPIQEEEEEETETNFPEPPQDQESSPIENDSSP
"Mean normalised apoptosis % (Ramos cells), with cross-linking mAb [%]","Mean normalised apoptosis % (Ramos cells), without cross-linking mAb [%]",Substance
278,,"mAb1 IgG1 (equivalent to rituximab), unmodified IgG1 control (antibody)"
359,106,mAb1 IgG1 mutant C220G (antibody)
332,78,mAb1 IgG1 mutant G137E-G138S (antibody)
322,106,mAb1 IgG1 mutant H224P (antibody)
